Experimental data from US20230002480A1.

What was measured:
Assay in all cases: cell-based or functional assay
[1] = molecular target: HIV-1 Env of pseudovirus ZM247v1(Rev-) (HIV-1)
[2] = molecular target: HIV-1 Env of pseudovirus Q23.17 (HIV-1)
[3] = molecular target: HIV-1 Env of pseudovirus 263-8 (HIV-1)
[4] = molecular target: HIV-1 Env of pseudovirus 928-28 (HIV-1)
[5] = molecular target: HIV-1 Env of pseudovirus CNE5 (HIV-1)
[6] = molecular target: HIV-1 Env of pseudovirus ZM197M.PB7 (HIV-1)
[7] = molecular target: HIV-1 Env of pseudovirus 3301.v1.c24 (clade AC) (HIV-1)
[8] = molecular target: HIV-1 Env of pseudovirus 6041.v3.c23 (clade AC) (HIV-1)
[9] = molecular target: HIV-1 Env of pseudovirus 3016.v5.c45 (clade D) (HIV-1)
[10] = molecular target: HIV-1 Env of pseudovirus 6811.v7.c18 (clade CD) (HIV-1)
[11] = molecular target: HIV-1 Env of pseudovirus 6952.v1.c20 (clade CD) (HIV-1)
[12] = molecular target: HIV-1 Env of pseudovirus A07412M1.vrc12 (clade D) (HIV-1)
[13] = molecular target: HIV-1 Env of pseudovirus X1632_S2_B10 (clade G) (HIV-1)
[14] = molecular target: HIV-1 Env of pseudovirus 231965.c01 (clade D) (HIV-1)
[15] = molecular target: HIV-1 Env of pseudovirus 231966.c02 (clade D) (HIV-1)
[16] = molecular target: HIV-1 Env of pseudovirus 0815.v3.c3 (clade ACD) (HIV-1)
[17] = molecular target: HIV-1 Env of pseudovirus 6545.v4.c1 (clade AC) (HIV-1)
[18] = molecular target: HIV-1 Env of pseudovirus 3817.v2.c59 (clade CD) (HIV-1)
[19] = molecular target: HIV-1 Env of pseudovirus 89-F1_2_25 (clade CD) (HIV-1)
[20] = molecular target: HIV-1 Env of pseudovirus 6540.v4.c1 (clade AC) (HIV-1)
[21] = molecular target: HIV-1 Env of pseudovirus 6480.v4.c25 (clade CD) (HIV-1)
[22] = molecular target: HIV-1 Env of pseudovirus 3103.v3.c10 (clade ACD) (HIV-1)
[23] = molecular target: HIV-1 Env of pseudovirus P1981_C5_3 (clade G) (HIV-1)
[24] = molecular target: HIV-1 Env of pseudovirus X2131_C1_B5 (clade G) (HIV-1)
[25] = molecular target: HIV-1 Env of pseudovirus 3415.v1.c1 (HIV-1)

PGT151 (antibody)
IC50 [1]: 0.009 µg/mL | IC80 [1]: > 50 µg/mL | IC50 [2]: 7 ng/mL | IC80 [2]: 0.045 µg/mL | IC50 [3]: > 50 µg/mL | IC80 [3]: > 50 µg/mL | IC50 [4]: > 50 µg/mL | IC80 [4]: > 50 µg/mL | IC50, titer in TZM.bl cells [5]: > 50 µg/mL | IC80, titer in TZM.bl cells [5]: > 50 µg/mL | IC50 [6]: 0.003 µg/mL | IC80 [6]: 0.033 µg/mL

PGDM1400 (antibody)
IC50 [1]: 0.019 µg/mL | IC80 [1]: 0.051 µg/mL | IC50 [2]: < 1 ng/mL | IC80 [2]: 0.003 µg/mL | IC50 [3]: 0.02 µg/mL | IC80 [3]: 0.103 µg/mL | IC50 [4]: 0.22 µg/mL | IC80 [4]: 1.25 µg/mL | IC50, titer in TZM.bl cells [5]: < 0.001 µg/mL | IC80, titer in TZM.bl cells [5]: < 0.001 µg/mL | IC50 [6]: 0.063 µg/mL | IC80 [6]: 0.285 µg/mL

PGT145 (antibody)
IC50 [1]: 7.19 µg/mL | IC80 [1]: > 50 µg/mL | IC50 [2]: 1320 ng/mL | IC80 [2]: > 50 µg/mL | IC50 [3]: 32.1 µg/mL | IC80 [3]: > 50 µg/mL | IC50 [4]: > 50 µg/mL | IC80 [4]: > 50 µg/mL | IC50, titer in TZM.bl cells [5]: 0.001 µg/mL | IC80, titer in TZM.bl cells [5]: 0.013 µg/mL | IC50 [6]: 0.628 µg/mL | IC80 [6]: 5.24 µg/mL

PGT128 (antibody)
IC50 [1]: 0.021 µg/mL | IC80 [1]: 0.081 µg/mL | IC50 [2]: 9 ng/mL | IC80 [2]: 0.024 µg/mL | IC50 [3]: 0.342 µg/mL | IC80 [3]: 3.3 µg/mL | IC50 [4]: > 50 µg/mL | IC80 [4]: > 50 µg/mL | IC50, titer in TZM.bl cells [5]: 0.018 µg/mL | IC80, titer in TZM.bl cells [5]: 0.253 µg/mL | IC50 [6]: > 50 µg/mL | IC80 [6]: > 50 µg/mL

PG9 (antibody)
IC50, titer in TZM.bl cells [7]: 0.216 µg/mL | IC80, titer in TZM.bl cells [7]: 0.756 µg/mL | IC50, titer in TZM.bl cells [1]: 0.112 µg/mL | IC80, titer in TZM.bl cells [1]: 0.323 µg/mL | IC50, titer in TZM.bl cells [8]: 0.244 µg/mL | IC80, titer in TZM.bl cells [8]: 3.64 µg/mL | IC50, titer in TZM.bl cells [9]: 2.46 µg/mL | IC80, titer in TZM.bl cells [9]: > 50 µg/mL | IC50, titer in TZM.bl cells [2]: 0.027 µg/mL | IC80, titer in TZM.bl cells [2]: 0.082 µg/mL | IC50, titer in TZM.bl cells [3]: 0.293 µg/mL | IC80, titer in TZM.bl cells [3]: 1.05 µg/mL | IC50, titer in TZM.bl cells [10]: > 50 µg/mL | IC80, titer in TZM.bl cells [10]: > 50 µg/mL | IC50, titer in TZM.bl cells [11]: > 50 µg/mL | IC80, titer in TZM.bl cells [11]: > 50 µg/mL | IC50, titer in TZM.bl cells [12]: 0.697 µg/mL | IC80, titer in TZM.bl cells [12]: 7.96 µg/mL | IC50, titer in TZM.bl cells [13]: 0.107 µg/mL | IC80, titer in TZM.bl cells [13]: 0.934 µg/mL | IC50, titer in TZM.bl cells [4]: 0.101 µg/mL | IC80, titer in TZM.bl cells [4]: 0.45 µg/mL | IC50, titer in TZM.bl cells [14]: 1.28 µg/mL | IC80, titer in TZM.bl cells [14]: 48 µg/mL | IC50, titer in TZM.bl cells [15]: 0.075 µg/mL | IC80, titer in TZM.bl cells [15]: 0.257 µg/mL | IC50, titer in TZM.bl cells [16]: > 50 µg/mL | IC80, titer in TZM.bl cells [16]: > 50 µg/mL | IC50, titer in TZM.bl cells [6]: 0.899 µg/mL | IC80, titer in TZM.bl cells [6]: 4.52 µg/mL | IC50, titer in TZM.bl cells [17]: 0.099 µg/mL | IC80, titer in TZM.bl cells [17]: 0.351 µg/mL | IC50, titer in TZM.bl cells [18]: 0.02 µg/mL | IC80, titer in TZM.bl cells [18]: 0.062 µg/mL | IC50, titer in TZM.bl cells [19]: 0.668 µg/mL | IC80, titer in TZM.bl cells [19]: 10.1 µg/mL | IC50, titer in TZM.bl cells [20]: 0.07 µg/mL | IC80, titer in TZM.bl cells [20]: 0.253 µg/mL | IC50, titer in TZM.bl cells [21]: > 50 µg/mL | IC80, titer in TZM.bl cells [21]: > 50 µg/mL | IC50, titer in TZM.bl cells [22]: 28 µg/mL | IC80, titer in TZM.bl cells [22]: > 50 µg/mL | IC50, titer in TZM.bl cells [23]: 0.258 µg/mL | IC80, titer in TZM.bl cells [23]: 2.51 µg/mL | IC50, titer in TZM.bl cells [24]: 0.084 µg/mL | IC80, titer in TZM.bl cells [24]: 0.286 µg/mL

VRC07 (antibody)
neutralization IC50 [1]: 0.041 µg/mL | neutralization IC80 [1]: 0.189 µg/mL | neutralization IC50 [2]: 0.081 µg/mL | neutralization IC80 [2]: 0.236 µg/mL | neutralization IC50 [3]: 0.103 µg/mL | neutralization IC80 [3]: 0.282 µg/mL | neutralization IC50 [4]: 0.278 µg/mL | neutralization IC80 [4]: 0.957 µg/mL | IC50, titer in TZM.bl cells [5]: 0.138 µg/mL | IC80, titer in TZM.bl cells [5]: 0.524 µg/mL | neutralization IC50 [6]: 0.307 µg/mL | neutralization IC80 [6]: 1.27 µg/mL | neutralization IC50 [25]: 0.036 µg/mL | neutralization IC80 [25]: 0.152 µg/mL

NIH 45-46 (antibody)
neutralization IC50 [1]: 1.64 µg/mL | neutralization IC80 [1]: > 50 µg/mL | neutralization IC50 [2]: 0.14 µg/mL | neutralization IC80 [2]: 0.6 µg/mL | neutralization IC50 [3]: 0.05 µg/mL | neutralization IC80 [3]: 0.1 µg/mL | neutralization IC50 [4]: 0.1 µg/mL | neutralization IC80 [4]: 0.39 µg/mL | IC50, titer in TZM.bl cells [5]: 0.09 µg/mL | IC80, titer in TZM.bl cells [5]: 0.41 µg/mL | neutralization IC50 [6]: 0.14 µg/mL | neutralization IC80 [6]: 0.64 µg/mL | neutralization IC50 [25]: 0.07 µg/mL | neutralization IC80 [25]: 0.07 µg/mL
